Laboratory results published in paper PMC10849882.

Assays:
[1] = target: IMPDH1(595)-S477D (human); assay: cryo-EM structure
[2] = target: IMPDH1(595)-S477D (human); assay: negative stain EM

Substance: IMPDH1(595)-S477D (enzyme)
- stoichiometry N [1]: 8
- stoichiometry N [2]: 8
